The target in test [1] is T1, human prothrombin (human, UniProt P00734 44-622).
T1 construct: Zymogen substrate of prothrombinase; also called factor II
Put plainly: calculated from IC50 of prothrombinase inhibition, IC50=Ki(1+S0/Km), Km 0.4 µM, prothrombin 350 nM. As for the experimental part: The buffer used in all cases was composed of 20 mM Hepes, 0.15 M NaCl, 5 mM CaCl₂, pH 7.4 [HBS(Ca²⁺), “assay buffer”]. […] All experiments were performed in triplicates or as indicated. The concentration of each peptide given in the figures and figure legends is their final concentration in the assay. The data were stored using the software FL WinLab (Perkin-Elmer Corp, Norwalk Conn.) and further analyzed and plotted with the software Prizm (GraphPad, San Diego, Calif.). In some cases the data were also analyzed and plotted using DeltaGraph (DeltaPoint, Monterey, Calif.).

The target of test [2] is T1, human prothrombin. Put plainly: cell-based or functional assay.
The target of test [3] is T2, N-alpha-[(acetylthio)acetyl]-Phe-Pro-Arg-thrombin (ATA-FPR-thrombin) coupled to agarose through the active … (UniProt P00734 328-622). Put plainly: chromatography on 2.5 ml thrombin-agarose, LC/MS of fractions. As for the experimental part:
(§1) Since some of the peptides contain aromatic amino acid residues, their concentration was also measured by optical density.
(§2) Each run represents 400 μg of peptide. […] Elution was performed with 2M NaCl and was started at the point indicated by the arrow (fraction #30). The presence of the peptides in the corresponding fractions was monitored by absorbance at 280 nm (shown on the y axis) and by LC/MS (inset).

The target in test [4] is T2, N-alpha-[(acetylthio)acetyl]-Phe-Pro-Arg …. As to the kind of experiment: chromatography on 2.5 ml thrombin-agarose, A280. The procedure:
as §1, §2

Test [5] has as its target T1, human prothrombin. As to the kind of experiment: kinetic analysis of prothrombinase inhibition.
The target in test [6] is T2, N-alpha-[(acetylthio)acetyl]-Phe-Pro-Arg …. As to the kind of experiment: chromatography on 2.5 ml thrombin-agarose, LC/MS of fraction #7 (before the salt elution). The procedure: as §1, §2
Test [7] has as its target T1, human prothrombin. Put plainly: calculated from IC50 (1.6 µM) of prothrombinase inhibition, IC50=Ki(1+S0/Km). As for the experimental part:
All experiments were performed in triplicates or as indicated. The concentration of each peptide given in the figures and figure legends is their final concentration in the assay. The data were stored using the software FL WinLab (Perkin-Elmer Corp, Norwalk Conn.) and further analyzed and plotted with the software Prizm (GraphPad, San Diego, Calif.). In some cases the data were also analyzed and plotted using DeltaGraph (DeltaPoint, Monterey, Calif.).

Where no end group is shown, it is not given here. [ ]: non-standard residue; d: D form. sY = N[C@@H](Cc1ccc(OS(=O)(=O)O)cc1)C(=O)O

In general, Ki refers to a measure of affinity in units of concentration, obtained from inhibition or displacement.

Regarding EESDADYDYQ (Synthetic 10-residue peptide) [HC3 peptide (amino acid region 690-699 of human factor Va heavy chain)], the inhibition constant (Ki) with human prothrombin [1] is 6.3 µM. Also, in the test with human prothrombin [2], the “IC50 of inhibition of prothrombinase activity (DAPA thrombin formation assay)” value worked out at 12 µM.

Take LEPEDEESDA [HC2 peptide (from region 680-709 of human factor Va heavy chain)]: the binding result in test [3] is “no binding (tested: 400 µg of peptide)”.

With DYDYQNRLAA (Synthetic 10-residue peptide) [HC4 peptide (amino acid residues 695-704 of human factor Va heavy chain)], in the test with human prothrombin [1], the Ki is 5.3 µM. Besides, the “IC50 of inhibition of prothrombinase activity (DAPA thrombin formation assay)” value with human prothrombin [2] came to 10 µM.

B1: P15H control pentadecapeptide (amino acid sequence 337-351 from the middle portion of human factor Va heavy chain) (peptide)
peptide: PVIPANMDKKYRSQH
notes: Negative control peptide; also called control peptide
Take B1: the binding result in test [4] is reported as “no binding (tested: 400 µg of peptide)”.

B2: double sulfonated peptide DYDYQ (1, 2), DY(-SO3)DY(-SO3)Q (peptide)
peptide: D[sY]D[sY]Q
notes: Sulfonated form of the factor Va 695-699 motif; also called D5Q1,2
Consider B2, for which the binding result with human prothrombin [5] is reported as “binds”.

In the case of NRLAAALGIR (Last of five overlapping 10-mers) [HC5 peptide (from region 680-709 of human factor Va heavy chain)], the binding result in test [6] is on record as “no binding (tested: 400 µg of peptide)”.

B3: pentapeptide DYDYQ (Asp695-Tyr696-Asp697-Tyr698-Gln699 of human factor Va heavy chain) (peptide)
peptide: DYDYQ
notes: Synthetic, non-sulfonated pentapeptide; also called D5Q
For B3, the “IC50 of inhibition of prothrombinase function” value with human prothrombin [2] was determined as 1.6 µM. Further, in the test with human prothrombin [7], the inhibition constant Ki was 0.85 µM.

As for KMHDRLEPED (First of five overlapping 10-mers) [HC1 peptide (from region 680-709 of human factor Va heavy chain)], the binding result in test [3] is on record as “no binding (tested: 400 µg of peptide)”.
